Experimental data: patent publication US20040265235A1, “Magnetic resonance contrast-enhancing agents and method for detecting and imaging artherosclerotic plaque” (priority 2003, published 2004)

Experiment: MR T1 relaxivity of contrast agents
Type: physicochemical
Conditions: globular versus elongated conformation
Description: A low relaxivity or long relaxation time is associated with an elongated molecule such as a highly substituted Gd-DTPA-PLL, in which the Gd can rotate rapidly, having a relaxivity of about 8 sec^−1 mM^−1. When the relaxivity of a peptide contrast agent was high, the uptake coefficient of such an agent was invariably low, evidently due to the absence of a reptation movement of the contrast agent molecule, resulting in the exclusion of the contrast agent from narrow passages. Thus, it is important to establish that the peptides being compared for optimum length are all of the same conformation. Relaxivity values of the Gd-PLL for various lengths were tested to be between 7.5 and 10 for average chain length of 92, 219, 455, 633, and 1163 residues, in a 2 Tesla magnet (2 T) at 80 MHz and 23° C.

albumin
relaxivity: about 15 sec^−1 mM^−1
